The conditions of series [1]: literature; cited from earlier work.
The conditions of series [2]: literature; cited from earlier work. This is another data set of the same source.
For series [3], the system named is ITLN-1. The conditions noted are these: intestinal epithelial cells, literature; cited from earlier work.
Series [4] is described as follows: Biodistribution of full-length lactoferrin, lactoferricin and hLF-6 in LPS-challenged mice (IVIS). The conditions noted are these: fluorescent label, i.v., 2 h. The series is classed as in vivo. The protocol:
Lactoferrin and lactoferricin are cloned in an expression plasmid containing the C-terminal Sortase-sequence protein-LPETG-HHHHHH. LPETGHHHHHH is SEQ ID NO: 98. Next, the protein is expressed overnight in E. coli and purified from sonicated bacterial cell lysates by Ni-NTA beads using 400 mM imidazole to elute the proteins. After overnight dialysis, full-length lactoferrin and hLF-6 are labelled by means of a Sortase exchange reaction on the C-terminus with a fluorescent dye (Alexa647 or Cy5.5) for 2 h at 4 °C using a fluorescently labelled donor peptide (formula:biotin-GSSG-LPETG-label or biotin-GSSG-LPETG-PEG40k-label) as substrate GSSGLPETG is SEQ ID NO: 99. Excess donor peptide is removed by means of streptavidin binding of the biotin tag on the N-terminus of the donor peptide. Next, the purified labelled protein/peptide is injected into LPS-challenged mice via intravenous injection in the tail vein. Mice are sacrificed after 2 h, and organs harvested for imaging by IVIS. Biodistribution is quantified for each organ, and relative distribution is shown.

The source of these data is patent US20260355328A1, “A complex comprising a cargo and a targeting moiety binding intelectin-1” (Stichting Radboud universitair medisch centrum, priority 2022, published 2026).

“Also recorded” adds a separate entry of the source.

B1: full-length lactoferrin: full-length human lactoferrin protein (protein, UniProt P02788 1-710, looked up)
chain: MKLVFLVLLFLGALGLCLAGRRRSVQWCAVSQPEATKCFQWQRNMRKVRGPPVSCIKRDSPIQCIQAIAENRADAVTLDGGFIYEAGLAPYKLRPVAAEVYGTERQPRTHYYAVAVVKKGGSFQLNELQGLKSCHTGLRRTAGWNVPIGTLRPFLNWTGPPEPIEAAVARFFSASCVPGADKGQFPNLCRLCAGTGENKCAFSSQEPYFSYSGAFKCLRDGAGDVAFIRESTVFEDLSDEAERDEYELLCPDNTRKPVDKFKDCHLARVPSHAVVARSVNGKEDAIWNLLRQAQEKFGKDKSPKFQLFGSPSGQKDLLFKDSAIGFSRVPPRIDSGLYLGSGYFTAIQNLRKSEEEVAARRARVVWCAVGEQELRKCNQWSGLSEGSVTCSSASTTEDCIALVLKGEADAMSLDGGYVYTAGKCGLVPVLAENYKSQQSSDPDPNCVDRPVEGYLAVAVVRRSDTSLTWNSVKGKKSCHTAVDRTAGWNIPMGLLFNQTGSCKFDEYFSQSCAPGSDPRSNLCALCIGDEQGENKCVPNSNERYYGYTGAFRCLAENAGDVAFVKDVTVLQNTDGNNNEAWAKDLKLADFALLCLDGKRKPVTEARSCHLAMAPNHAVVSRMDKVERLKQVLLHQQAKFGRNGSDCPDKFCLFQSETKNLLFNDNTECLARLHGKTTYEKYLGPQYVAGITNLKKCSTSPLLEACEFLRK
modifications: full-length
notes: full-length human lactoferrin protein
On to B1, for which the “biodistribution of radioactive-labelled full-length protein” value in series [1] is “comprise multiple organs and not primarily the kidney; also recorded: distribution to many organs”. For the same molecule, the ribonuclease activity entry in series [2] is “pyrimidine-specific ribonuclease activity”. The “uptake upon overexpression of ITLN-1” value in series [3] is “increases uptake of lactoferrin in endosomes”. Moreover, the bio-distribution entry in series [4] was “accumulation predominantly in liver and spleen and less in kidney, brain and intestine”.
